# Experimental data reported in patent US20230303681A1.
# Molecular target: mouse TMEM106B (mouse) (UniProt Q80X71)
# Assay: FACS Neuro2a
row,MFI,Substance
1,220,Negative ctrl #1 (antibody)
2,235,Negative ctrl #2 (antibody)
3,216,Negative ctrl #3 (antibody)
